Assay results taken from PMC7301450.

Target: α-CD64-scFv
Experiment: ELISA; wells coated with 10 μg/mL α-CD64-scFv overnight at 4 °C, blocked with 3% BSA/PBS; recombinant CD64 at 0, 0.5, 1.0, 5.0 and 10 ng/mL, room temperature 2 h; detected with rabbit anti-CD64 polyclonal antibody, anti-rabbit HRP and TMB, read at 370 nm

Sequence of α-CD64-scFv (heavy, as listed by the source, chain 1 of 2): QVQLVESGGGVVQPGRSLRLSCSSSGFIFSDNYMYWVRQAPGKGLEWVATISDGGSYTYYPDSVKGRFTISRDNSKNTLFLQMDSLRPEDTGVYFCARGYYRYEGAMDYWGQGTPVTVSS
Sequence of α-CD64-scFv (light, as listed by the source, chain 2 of 2): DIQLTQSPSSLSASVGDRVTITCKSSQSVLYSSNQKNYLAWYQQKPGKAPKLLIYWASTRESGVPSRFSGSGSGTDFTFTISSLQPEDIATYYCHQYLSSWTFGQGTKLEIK

maximum absorbance (at 5 ng/mL CD64): 0.236 absorbance
Substance: recombinant human CD64 (from UniProt P12314 16-292) (receptor)
